Data reported in patent US20200239597A1, “AN ANTI-APOPTOTIC FUNCTION OF PKM2 AND INTRACELLULARLY EXPRESSED SCFV ANTIBODIES” (La Jolla Institute for Allergy and Immunology, priority 2017, published 2020).

What was measured:
[1] = tested on: 293T cells; test: Rescue of 293T cells from BimS-induced apoptosis (cell viability); format: cell-based, human
Protocol: Human BimS cDNA was subcloned into a pShooter™ mammalian expression vector (pCMV/myc/cyto; Invitrogen), to allow the expression of BimS driven by a CMV promoter. […] 293T cells were then infected with the intrabody library and then transfected with 4 μg/ml BimS plasmid, using 10 l of Lipofectamine® 2000 transfection reagent (Thermo Fisher). After 24 h post-infection, the culture medium was replaced with fresh MEMc medium supplemented with 10% FBS and penicillin/streptomycin (Gibco-Invitrogen).
(§1) Cell viability was measured with a Countess™ Automated Cell Counter (Invitrogen) using trypan blue. For the clonogenic survival assay, 293T or MEFs cells were seeded in 6-well plates at 1×10^5 cells/well in a 2-ml volume, transfected with BimS cDNA and incubated for 24 h. Afterwards, the medium was replaced and the cells cultured for 3-4 days. Thereafter, the plates were rinsed with PBS and fixed and stained with a solution containing crystal violet (0.5% w/v) and glutaraldehyde (6% v/v) as described (Franken et al., 2006).

[2] = tested on: Mfn1, Mfn2; test: Immunoblot of Mfn1 and Mfn2 protein levels in reconstituted MEFs; format: cell-based, mouse
[3] = tested on: mouse embryonic fibroblasts (MEFs); test: BimS-induced death in MEFs (WT, PKM2-deficient, reconstituted), surviving cells counted; format: cell-based
Protocol: Wild type (WT) mouse embryonic fibroblasts (MEFs), PKM2-deficient MEFs, or PKM2-deficient MEFs reconstituted with WT or mutant PKIM2 cDNA, were infected or not with IB5, then later transfected with BimS expression plasmid. Surviving cells were counted 48 h afterwards.
as §1

[4] = tested on: 293T cells; test: siRNA silencing of PKM2, rescue from BimS killing; format: cell-based, human; settings: 30 nM PKM2-specific siRNA
Protocol: 5×10^5 cells were incubated per well for 12 h, then cells were either mock-transfected, transfected with 30 nM PKM2-specific siRNA (si M2), or transfected with NF-kB p50-specific siRNA (si p50). After a further 36-h incubation, samples of the same siRNAs were added along with 4 μg of BimS cDNA in fresh medium. Viable cells were counted after another 48-h incubation.
Untreated or IB5-infected 293T cells (5×10^5 per well) were seeded into 6-well plates (Falcon) and transfected with 30 nM siRNA. Lipofectamine™ 2000 (Invitrogen, Carlsbad, Calif., USA) was used for transient transfection according to the manufacturer's protocol. After a 30-h incubation, fresh medium containing 30 nM siRNA and 4 μg/ml BimS expression plasmid was added. Cell viability assay was assayed after a further 36-h incubation. The PKM2-siRNA and control siRNA were purchased from Dharmacon (SiGENOME SMART™ pool hPKM2, Si156, and ONTARGETplus™ non-targeting siRNA #2) (Goldberg and Sharp, 2012).

[5] = tested on: MEFs; test: BimS-resistant clonogenic survival in MEFs; format: cell-based, mouse
Protocol: The plates were fixed and stained with crystal violet after 1 week and the total area of colonies were counted as above. The SD and P value was calculated from 6 individual plates.
WT, Mfn1- or Mfn2-deficient MEFs were infected or not with IB5 lentivirus, then 1×10^5 cells were plated and transfected with BimS expression plasmid. The plates were fixed and stained with crystal violet after 1 week and the total areas of colonies were measured as above. Mean, SD and P values were calculated from 5 individual plates.
as §1

[6] = tested on: mitochondria isolated from 293T cells; test: Mitochondria isolation and cytochrome c release assay (MOMP induced by cleaved Bid); format: cell-based, human; settings: mitochondria from IB5-expressing 293T cells, 30 min at 37° C.
Protocol: Control (top) or Intrabody-expressing (bottom) 293T cells were collected and the mitochondrial fraction was isolated by differential centrifugation. To induce MOMP, recombinant cBid protein was added at the indicated concentrations. After incubation for 30 min at 37° C., samples were centrifuged, and cytochrome c (cyt c) content in mitochondrial pellet fractions was analyzed by immunoblot. A representative of three independent experiments is shown. Right panel: densitometric quantification of average cytochrome c content ±SEM from three independent experiments.
Mitochondria were isolated from 5×10^8 cells as described (Waterhouse et al., 2001). The freshly isolated mitochondria ([…]) were then incubated with recombinant cleaved Bid protein (Kuwana et al., 2002) at the indicated concentrations in the presence or absence of purified scFv #5. After incubation for 30 min at 37° C., mitochondria were collected by centrifugation at 10 000×g and analyzed by immunoblotting as described (Waterhouse et al., 2001).

[7] = tested on: HCT116 and U2OS cells; test: Clonogenic survival with etoposide or staurosporine; format: cell-based; settings: 150 nM etoposide
Protocol: 5×10^5 HCT116 and U2OS cells were plated and transfected with BimS expression plasmid including 150 nM etoposide or 1 μM Staurosporine. The plates were fixed and stained with crystal violet after 5 days and the total areas of colonies were measured. Mean, SD and P values were calculated from 3 individual plates.

B1: IB5: intracellularly expressed single-chain antibody (scFv) specific for PKM2, SEQ ID NO: 2; also made as monovalent recombinant scFv in E. coli (protein)
scFv: MAQVQLVETGPGLVKPSETLSLRCTVSGGSFDNYYWNWIRQPPGKGLEYIGYVFPSTGATNYNPSLGSRVTISLDTSKNQFSLTLTSVTTADTAIYYCVRSGHDLWTGSTWFDPWGQWTTVTVSSGGGGSGGGGSGGGGSEIVLTQSPGTLSLSPGERATLSCRASQSVSSSYLAWYQQKPGQAPRLLIYGASSRATGIPDRFSGSGSGTDFTLTISRLEPEDIAVYYCQQRSNWPRTFGQGTKVEIKRGLGGLASVDYKDDDDK
modifications: artificial intrabody clone 5
notes: also made as monovalent recombinant scFv in E. coli
In the case of B1, the “percentage of 293T cells rescued from BimS-induced death” value ([1]; single intrabody expressed from lentivirus, BimS cDNA transfection) is reported as 15-20%, the “survival effect when expressed with a weaker promoter” value ([1]; weaker promoter, not shown) is reported as “reduced” and the “levels of Mfn1” value ([2]; cells expressing the K422R mutant) is reported as “upregulated Mfn1 even further”. The Mfn2 levels ([2]; reconstituted MEFs) was “left Mfn2 levels unchanged”, the “levels of Mfn1” value ([2]; reconstituted MEFs) was “substantially increased” and the “rescue from BimS-induced killing” value ([3]; PKM2-deficient MEFs) was “entirely abrogated”. The “cell rescue after reconstitution” value ([3]; PKM2-null MEFs reconstituted with PKM2 (K270M)) was “failed to support IB5-induced cell rescue”, the “cytoprotective ability after reconstitution” value ([3]; PKM2-null MEFs reconstituted with WT PKM2 cDNA) was “restored the cytoprotective ability of IB5” and the “rescue from BimS-induced killing” value ([3]; WT MEFs) was “rescued a percentage of the WT cells”. For the same molecule, the “numbers of viable cells” value ([3]; early-passage MEFs reconstituted with PKM2 (K422R)) was “further increased viability”, the “ability to rescue cells from BimS killing after PKM2 silencing” value [4] was “substantial reduction” and the “rescue from BimS-induced clonogenic death” value ([5]; Mfn1-deficient MEFs) was “failed to rescue”. The “rescue from BimS-induced death (clonogenic)” value ([5]; Mfn2-null MEFs) was “rescued”, the “rescue from BimS-induced death (clonogenic)” value ([5]; WT MEFs) was “rescued” and the clonogenic survival ([5]; early passage MEFs with PKM2 (K422R)) was “enhanced clonogenic survival”. The clonogenic survival ([5]; later-passage MEFs with PKM2 (K422R)) was “further enhanced”, the “resistance of mitochondria to MOMP induced by cleaved Bid protein” value [6] was “reproducibly more resistant than control mitochondria to MOMP” and the “clonogenic survival in cells treated with etoposide” value [7] was “promoted clonogenic survival”.
